# In the supplement of paper PMC10126150:
# ± gives the standard deviation of the averaged measurements.
# Tested on: ATP
# Assay: switch fluorescence ratio, 500 uM ATP over buffer (Cy3 cluster intensity, sum of 5 cycles each) (fold (ratio)); higher = stronger signal-on switching upon ATP binding; sequences stand for … in TCGTCGGCAGCGTCAGATGTGTATAAGAGACAGTTTTTTTTTTTTTTTTTTTTTTTTT…TC
# Conditions: aptamer strand: ATP DNA aptamer (quencher-CACCTGGGGGAGTATTGCGGAGGAAGG + anchor), 100 nM annealed; ATP concentration: 500 uM
# In short: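 Clusters carrying Cy3-labelled switching strands on a modified Illumina MiSeq flow-cell were annealed to 100 nM quencher-labelled ATP aptamer and imaged in selection buffer. They were imaged again after 15 min with 500 uM ATP at 22 °C, over five buffer/ATP cycles with NaOH stripping and re-annealing in between. For each cluster, the fluorescence ratio is the summed Cy3 intensity of the target cycles divided by that of the buffer cycles, averaged per switch-domain sequence. Clusters outside 100-1000 RFU were left out.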
# 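Also: ATP exposure 15 min at 22 °C before imaging.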
row,Sequence,switch fluorescence ratio
1,GGAGGGTTGG,0.998 ± 0.059
2,TAATTTGTTG,0.988 ± 0.028
3,ATTAGCACGG,0.997 ± 0.013
4,GGGTTTCGGG,0.9779 ± 0.0092
5,TTTTAACATA,1.02 ± 0.016
6,GATATCATTT,1.03 ± 0.022
7,AACGGCTTCA,1.057 ± 0.0029
8,AATGGAAGGC,1.09 ± 0.07
9,TGCAAATTCC,1.11 ± 0.021
10,TGGGGTGCGG,0.975 ± 0.026
11,CATGATTATT,0.986 ± 0.024
12,TCCCGCGGCG,1.08 ± 0.041
13,CACGTCAACT,1.32 ± 0.06
14,TAGCAGGTGG,1.15 ± 0.14
15,TATGAAGAGT,1.01 ± 0.017
16,TGGAAAGGCG,1.04 ± 0.06
17,TTATTGCCTT,1.03 ± 0.025
18,ATTATCTGCG,1 ± 0.011
19,ATTCTGTCGT,1 ± 0.021
20,TACTTTTGAC,1.04 ± 0.011
21,GAAGGGGTTG,1.02 ± 0.065
22,AGTACTTGCC,1.03 ± 0.016
23,AAGATGGGGG,0.998 ± 0.033

row,Sequence,switch fluorescence ratio
1,ATGTTAAGGA,0.998 ± 0.012
2,GGAGCTTGCA,1.02 ± 0.023
3,GTTTACTGAA,1.01 ± 0.018
4,AAGGGATTAG,1.01 ± 0.037
5,ATCAGGTGCG,1.2924 ± 0.00069
6,GACGCGAGTT,1.09 ± 0.022
7,TGACCGGCTT,1.05 ± 0.013
8,ATTCATCGCT,1.0258 ± 0.00018
9,TAAAATGGTT,1.02 ± 0.032
10,TAAGTGGGAA,1.01 ± 0.035
11,GAGGGTCTGT,0.9794 ± 0.0048
12,AGCCAGGGAG,1.028 ± 0.0056
13,TCTGGTTGTG,1.01 ± 0.016
14,ATGTGTCTGG,0.998 ± 0.011
15,TGCAGGGCAG,0.98885 ± 0.00071
16,ATAATTGTTC,0.99 ± 0.031
17,ACAGGCACGC,1.069 ± 0.0017
18,TTTTTAGTCT,1 ± 0.027
19,GTCGGGGGGC,0.985 ± 0.021
20,AAGTCTGTCT,0.998 ± 0.054
21,TCTGAAACCG,1.18 ± 0.12
22,TGGGAACCAG,0.999 ± 0.015
23,AGGGGGTTGA,1.03 ± 0.032

row,Sequence,switch fluorescence ratio
1,CAGTTGGGTA,0.98 ± 0.028
2,CCGGTTGGTG,1 ± 0.036
3,CGAGGGTATG,1.01 ± 0.027
4,GCACGTAGCG,1.06 ± 0.046
5,CAATGGTAGT,0.9749 ± 0.0024
6,AAGCTATCGG,0.994 ± 0.016
7,CAACAACGCG,0.992 ± 0.02
8,TTTGTTGGGT,1 ± 0.022
9,TGTGGGGATA,0.9904 ± 0.0011
10,AGGTCGGTGG,1.07 ± 0.11
11,TACAGGGGAA,1.09 ± 0.056
12,AGTATTGGGG,0.999 ± 0.025
13,GGATAATAGT,0.9916 ± 0.0082
14,GAAGGGGGAA,1.02 ± 0.019
15,CTGTTAGGGA,0.958 ± 0.03
16,ACGGGGTTCT,0.965 ± 0.032
17,AGGGGGGGAA,1.01 ± 0.032
18,CTTAGTCAGC,1.06 ± 0.099
19,GGGATAAGCT,1.02 ± 0.022
20,CCTTTAAAAT,1.4 ± 0.41
21,ATAATGTTAC,1.09 ± 0.029
22,CAAGGTAAAG,0.992 ± 0.013
23,GGAATTGAGT,1.02 ± 0.021

row,Sequence,switch fluorescence ratio
1,TATTATTTGG,1 ± 0.034
2,GTTATCGGCG,1.01 ± 0.022
3,TGGGAGTATT,0.9815 ± 0.0069
4,GCTCCTCGCT,1.23 ± 0.081
5,TATTCGCTTT,1.33 ± 0.48
6,CCATACGTTT,1.02 ± 0.046
7,AGGCAACTAG,1.05 ± 0.027
8,TGAGTGGGGG,0.982 ± 0.014
9,TGATTCTAAG,0.977 ± 0.019
10,GGGATTAGGG,1.02 ± 0.043
11,CCGGGGGTTA,1.14 ± 0.23
12,ATGTAATAA,1.022 ± 0.0049
13,TTTTCGTTCG,1.01 ± 0.059
14,AAGAGGACGC,1 ± 0.066
15,TTACGTGAGG,1.02 ± 0.045
16,CAGGGATGCT,1.02 ± 0.035
17,ATCGGTACTG,0.965 ± 0.027
18,TTAGATGAAG,0.987 ± 0.031
19,GAAATGAGGG,0.977 ± 0.047
20,GGTACAAGAT,1.03 ± 0.013
21,AATTGAGGCG,1.02 ± 0.089
22,GAAATTTAGA,1.01 ± 0.028
23,TCGTGCTACA,0.97 ± 0.041

row,Sequence,switch fluorescence ratio
1,AAGTGGGTCG,0.9408 ± 0.0023
2,AGTGGTCG,1.04 ± 0.033
3,GGCAGCTGGA,0.9578 ± 0.0072
4,TGGGATAAAA,1.01 ± 0.044
5,AAAGAGGAAG,0.987 ± 0.02
6,TAGAGACCTG,1 ± 0.071
7,GGTCCGTAGT,1.04 ± 0.017
8,TGTTTATGGG,1.01 ± 0.033
9,GCTAACTTTT,1.03 ± 0.021
10,TTCCATTTTG,0.992 ± 0.032
11,AAGACGAATT,1.01 ± 0.058
12,ATCCACGCTA,1.45 ± 0.022
13,TGAGGGGTGC,1.04 ± 0.029
14,ATATAGTCCT,0.9714 ± 0.0023
15,AAGTATGTCT,1 ± 0.039
16,GGGGTGAAGG,1.01 ± 0.025
17,CGTCATTTGG,0.9769 ± 0.0044
18,GTTTGGGTGG,0.9979 ± 0.0065
19,GGATTGCTCG,1.03 ± 0.029
20,CGTAGAGAAA,0.991 ± 0.044
21,ATTAGAATGT,1.02 ± 0.023
22,ATGAGGTCGT,1.008 ± 0.007
23,CCGTAGGTTT,1.06 ± 0.037

row,Sequence,switch fluorescence ratio
1,GCGTGCCGAC,0.9793 ± 0.0041
2,CCGTAGGAAT,1.28 ± 0.068
3,TGGGAGGGGC,1.01 ± 0.021
4,TTATTTGTCG,1.01 ± 0.019
5,TCGTAAACTT,1.025 ± 0.005
6,TAAGCGGCGC,0.989 ± 0.084
7,CCGGAGGGGA,1.27 ± 0.18
8,CGGATCGTTG,0.9655 ± 0.0084
9,TAGTAAATAT,1.006 ± 0.0041
10,GCAGTGGGGG,1 ± 0.08
11,GTGATAAAAT,1.01 ± 0.031
12,ACACGGGGGT,1.01 ± 0.018
13,TTTTGTACAT,0.99 ± 0.039
14,ATTCCGGGCT,1.05 ± 0.031
15,ATTGTGGGTC,1.04 ± 0.02
16,CATTTGTATT,1.01 ± 0.038
17,AGCGTATGGG,0.983 ± 0.035
18,TATATCATTG,0.965 ± 0.011
19,GAGCTGAATG,0.9518 ± 0.0063
20,ACTGGGCCGT,1.01 ± 0.046
21,AAACTGGGCG,1.04 ± 0.062
22,GGGCGCCAGG,1.33 ± 0.66
23,GCGTTCATAG,0.995 ± 0.023

row,Sequence,switch fluorescence ratio
1,CTCTTACGTT,0.98 ± 0.023
2,GGTGGGGGAG,1.01 ± 0.043
3,TACCCGACTT,1.13 ± 0.009
4,ATTGGATAGG,1.01 ± 0.012
5,CTATTTCCTT,0.975 ± 0.031
6,TAGGGATTCC,1.014 ± 0.0079
7,TTAAAGCGGA,1.01 ± 0.021
8,GGGGGGGGAT,1.01 ± 0.029
9,AGACGGTAGC,1.01 ± 0.026
10,GAGTGGAGGT,0.985 ± 0.01
11,GGCTCTGCTA,1.11 ± 0.047
12,TAAGTAATTT,1.01 ± 0.042
13,TAGTGGTTTT,0.975 ± 0.02
14,GGATTAAGCT,1.015 ± 0.0043
15,CTGGTAAATC,1.02 ± 0.026
16,AATAGGGGAG,1 ± 0.037
17,ATTGTTATAT,1 ± 0.03
18,AGTCTGGTCC,0.987 ± 0.01
19,ATGATCTCCG,1.32 ± 0.017
